Target: membrane-associated human IR-A (plasma membranes of BHK cells stably transfected with human IR-A) (human) (UniProt P06213)
Experiment: competition SPA, displacement of [125I-A14Y]-human insulin from membrane-associated human IR-A; affinity relative to human insulin standard

Row | hIRA mem (% rel to HI), relative binding affinity | Substance
1 | 55.8 % rel to HI | A9E, B3E, B26E, desB30 human insulin (ligand)
2 | 35.4 % rel to HI | A9E, B3E, B27E, B28E, desB30 human insulin (ligand)

From US20230192801A1
